We go through 35 variants from the Human Domainome abundance scans (Beltran et al. 2025).

± gives the uncertainty stated by the source.

The chains are these.
B1: Storkhead-box protein 2, residues 64 to 141; numbered along this chain, Q9P2F5 (parent)
chain: SPISQSQFIPLGEILCLAISAMNSARKPVTQEALMEHLTTCFPGVPTPSQEILRHTLNTLVRERKIYPTPDGYFIVTP

In the data set the parent is B1. Kind of data set: abundance fitness (aPCA) (normalised: wild type 0, dead -1); higher = more abundant; growth selection in yeast, the domain comes from the species named. The settings on record: Homo sapiens.
Regarding SPISQSQFIPLGEILCLAISAMNSARKPVTQEALMEHLTDCFPGVPTPSQEILRHTLNTLVRERKIYPTPDGYFIVTP [T40D], the abundance fitness was -0.069 ± 0.098.

With SPISQSQFIPLGEILCLAISAMNSARKPVTQEALMEHLTYCFPGVPTPSQEILRHTLNTLVRERKIYPTPDGYFIVTP [T40Y], the abundance fitness was -0.069 ± 0.12.

Turning to SPISQSQFIPLGEILCLAISAMNSAWKPVTQEALMEHLTTCFPGVPTPSQEILRHTLNTLVRERKIYPTPDGYFIVTP [R26W], the abundance fitness is -0.134 ± 0.072.

As to SPISQSQFIPLGEILCLAISAMNSAQKPVTQEALMEHLTTCFPGVPTPSQEILRHTLNTLVRERKIYPTPDGYFIVTP [R26Q], the abundance fitness is -0.018 ± 0.2.

Turning to SPISQSQFIPLGEILCLAISAMNSARKPVTQEALMEHLTTCFPGVPTPSQEILRHTLNTLIRERKIYPTPDGYFIVTP [V61I], the abundance fitness was -0.014 ± 0.1.

On to SPISQSQFIPLGEILCLAISAMNSARKPVTQEALMEHLTTCFPGVPTPSQEILRHTLNTLKRERKIYPTPDGYFIVTP [V61K], for which the abundance fitness was -0.146 ± 0.077.

With SPISQSQFIPLGEILCLAISAMNSARKPVTQEALMDHLTTCFPGVPTPSQEILRHTLNTLVRERKIYPTPDGYFIVTP [E36D], the abundance fitness was -0.012 ± 0.083.

Consider SPISQSQFIPLGEILCLAISAMNSARKPVTQEALMEHLTTCFPGVPTPSQEILRHTLNTLVRERKIYPTHDGYFIVTP [P70H], for which the abundance fitness is -0.143 ± 0.085.

Take SPISQSQFIPLGEILCLAISAMNSARKPVTQEALMEHLTTCFPGVQTPSQEILRHTLNTLVRERKIYPTPDGYFIVTP [P46Q]: the abundance fitness was -0.187 ± 0.06.

In the case of SPISQSQFIPLGEILCLAISAMNSARKPVTQEDLMEHLTTCFPGVPTPSQEILRHTLNTLVRERKIYPTPDGYFIVTP [A33D], the abundance fitness is -0.154 ± 0.082.

For the variant SPISQSQFIPLGEILCLAISAMNSARKPVTQEVLMEHLTTCFPGVPTPSQEILRHTLNTLVRERKIYPTPDGYFIVTP [A33V], the abundance fitness is -0.127 ± 0.046.

Turning to SPISQSQFIALGEILCLAISAMNSARKPVTQEALMEHLTTCFPGVPTPSQEILRHTLNTLVRERKIYPTPDGYFIVTP [P10A], the abundance fitness is -0.027 ± 0.051.

Regarding SPISQSQFIPLGEILCLAISAMNSARKPVTQEALMEHLTTCFPGAPTPSQEILRHTLNTLVRERKIYPTPDGYFIVTP [V45A], the abundance fitness was -0.088 ± 0.043.

As to SPISQSQFIPLGEILCLAISAMNSARKPVTQEALMEHLTTCFPGNPTPSQEILRHTLNTLVRERKIYPTPDGYFIVTP [V45N], the abundance fitness is -0.209 ± 0.13.

Regarding SPISQSQFIPLVEILCLAISAMNSARKPVTQEALMEHLTTCFPGVPTPSQEILRHTLNTLVRERKIYPTPDGYFIVTP [G12V], the abundance fitness is -0.452 ± 0.2.

For the variant SPISQSQFIPLGEILCLAISAMNSARAPVTQEALMEHLTTCFPGVPTPSQEILRHTLNTLVRERKIYPTPDGYFIVTP [K27A], the abundance fitness was -0.077 ± 0.04.

In the case of SPISQSQFIPLGEILCLAISAMNSARIPVTQEALMEHLTTCFPGVPTPSQEILRHTLNTLVRERKIYPTPDGYFIVTP [K27I], the abundance fitness is -0.072 ± 0.091.

On to SPISQSQFIPLGEILCLAISAMNSARKPVTQEALMEHLTTCFPGVPTPSQVILRHTLNTLVRERKIYPTPDGYFIVTP [E51V], for which the abundance fitness was -0.145 ± 0.051.

Consider SPISQSQFIPLGEILCLAISAMASARKPVTQEALMEHLTTCFPGVPTPSQEILRHTLNTLVRERKIYPTPDGYFIVTP [N23A], for which the abundance fitness is -0.156 ± 0.052.

Consider SPISQSQFIPLGEILCLAISAMWSARKPVTQEALMEHLTTCFPGVPTPSQEILRHTLNTLVRERKIYPTPDGYFIVTP [N23W], for which the abundance fitness is -0.31 ± 0.043.

Turning to SPISQSQFIPLGEILCLAISAMPSARKPVTQEALMEHLTTCFPGVPTPSQEILRHTLNTLVRERKIYPTPDGYFIVTP [N23P], the abundance fitness was -0.564 ± 0.055.

With SPISQSQFIPLGEILCLAISHMNSARKPVTQEALMEHLTTCFPGVPTPSQEILRHTLNTLVRERKIYPTPDGYFIVTP [A21H], the abundance fitness was -0.181 ± 0.17.

Consider SPISQSQFIPLGEILCLAISTMNSARKPVTQEALMEHLTTCFPGVPTPSQEILRHTLNTLVRERKIYPTPDGYFIVTP [A21T], for which the abundance fitness is -0.086 ± 0.089.

Turning to SPISQSQFIPLGEILCLAISAMNSARKPVTQEALMEHLTTCFPGVPTPRQEILRHTLNTLVRERKIYPTPDGYFIVTP [S49R], the abundance fitness is -0.21 ± 0.036.

For SPISQSQFIPLGEILCLAISAMNSARKPVTQEALMEHLTTCFPGVPTPSQEILRHTLNTLVRERSIYPTPDGYFIVTP [K65S], the abundance fitness was -0.082 ± 0.058.

Take FPISQSQFIPLGEILCLAISAMNSARKPVTQEALMEHLTTCFPGVPTPSQEILRHTLNTLVRERKIYPTPDGYFIVTP [S1F]: the abundance fitness is -0.092 ± 0.084.

Turning to LPISQSQFIPLGEILCLAISAMNSARKPVTQEALMEHLTTCFPGVPTPSQEILRHTLNTLVRERKIYPTPDGYFIVTP [S1L], the abundance fitness is -0.207 ± 0.065.

Consider SPISQSQFIPLGEILCLAISAMNSARKPVTQEALMEHLTTCFPGVPTPSQEILRHTLNTLVRERKIYPAPDGYFIVTP [T69A], for which the abundance fitness is -0.028 ± 0.061.

In the case of SPISQSQFIPLGEILCLAISAMNSARKPVTQEALMEHLTTDFPGVPTPSQEILRHTLNTLVRERKIYPTPDGYFIVTP [C41D], the abundance fitness is -0.055 ± 0.064.

As to SPNSQSQFIPLGEILCLAISAMNSARKPVTQEALMEHLTTCFPGVPTPSQEILRHTLNTLVRERKIYPTPDGYFIVTP [I3N], the abundance fitness is -0.207 ± 0.063.

Take SPRSQSQFIPLGEILCLAISAMNSARKPVTQEALMEHLTTCFPGVPTPSQEILRHTLNTLVRERKIYPTPDGYFIVTP [I3R]: the abundance fitness is -0.022 ± 0.035.

Consider SPISQSQFIPLGEILCLAIIAMNSARKPVTQEALMEHLTTCFPGVPTPSQEILRHTLNTLVRERKIYPTPDGYFIVTP [S20I], for which the abundance fitness is -0.359 ± 0.099.

For the variant SPISQSQFIPLGEILCLAIMAMNSARKPVTQEALMEHLTTCFPGVPTPSQEILRHTLNTLVRERKIYPTPDGYFIVTP [S20M], the abundance fitness was -0.115 ± 0.067.

On to SPISQSQFIPLGEILCLAILAMNSARKPVTQEALMEHLTTCFPGVPTPSQEILRHTLNTLVRERKIYPTPDGYFIVTP [S20L], for which the abundance fitness is -0.172 ± 0.024.

SPISQTQFIPLGEILCLAISAMNSARKPVTQEALMEHLTTCFPGVPTPSQEILRHTLNTLVRERKIYPTPDGYFIVTP [S6T]: the abundance fitness was -0.079 ± 0.058.
